Source: the DeepSol protein solubility set

Test: soluble on expression in E. coli; label from the status in PepcDB or PDB records

| Sequence | soluble on expression in E. coli |
| --- | --- |
| MSLTQAATRPTNDAGQDGGNNSDILVVARQQVLQRGEGLNQDQVLAVLQLPDDRLEELLALAHEVRMRWCGPEVEVEGIISLKTGGCPEDCHFCSQSGLFASPVRSAWLDIPSLVEAAKQTAKSGATEFCIVAAVRGPDERLMAQVAAGIEAIRNEVEINIACSLGMLTAEQVDQLAARGVHRYNHNLETARSFFANVVTTHTWEERWQTLSMVRDAGMEVCCGGILGMGETLQQRAEFAAELAELGPDEVPLNFLNPRPGTPFADLEVMPVGDALKAVAAFRLALPRTMLRFAGGREITLGDLGAKRGILGGINAVIVGNYLTTLGRPAEADLELLDELQMPLKALNASLEGHHHHHH | soluble |
| MSGRYNMNIILGATGQVGSMLVDNLLGKGQPVRAVVRDGLKAQGLKNKGVEVKIADYLDVEALKKAFQGGSSVFLLTPENPESENFINEIQRIMSNYREAVLSSGISKIVGLSSMGAQHKSGTGNLMASYMLEHAFSDLEIEQVFVRPAYYFSNWLGYLELVREYGILPTFFPPELELPMIAPPDVAGFLSDVMTCKTQQERIYEISGPHDYSSSDIAKIFGDVLNKNVTLQQVLPEEWENTLIQAGFSKDGTRNLMLMTKAVIDGKTKNETTNRLRFSTNFKNYLQSVILNMS | not soluble |
| MCTALSPKVRSGPGLSDMHQYSQWLASRHEANLLPMKEDLALWLTNLLGKEITAETFMEKLDNGALLCQLAETMQEKFKESMDANKPTKNLPLKKIPCKTSAPSGSFFARDNTANFLSWCRDLGVDETCLFESEGLVLHKQPREVCLCLLELGRIAARYGVEPPGLIKLEKEIEQEETLSAPSPSPSPSSKSSGKKSTGNLLDDAVKRISEDPPCKCPNKFCVERLSQGRYRVGEKILFIRMLHNKHVMVRVGGGWETFAGYLLKHDPCRMLQISRVDGKTSPIQSKSPTLKDMNPDNYLVVSASYKAKKEIKLEHHHHHH | not soluble |
| MRLKDKAVLITGAAHGIGRATLELFAKEGARLVACDIEEGPLREAAEAVGAHPVVMDVADPASVERGFAEALAHLGRLDGVVHYAGITRDNFHWKMPLEDWELVLRVNLTGSFLVAKAASEAMREKNPGSIVLTASRVYLGNLGQANYAASMAGVVGLTRTLALELGRWGIRVNTLAPGFIETRMTAKVPEKVREKAIAATPLGRAGKPLEVAYAALFLLSDESSFITGQVLFVDGGRTIGAAPA | soluble |
| MSGSDDDATQISREDEELAYEIYFWIVRCICEKGVVKISELRKIYQSTVVKDRSVQFRPLPGVLKAVNENLLHWQGWNAVIQDDRLTYVNVNGDAPNEVRASETERTLGLLKNVLMYVFVATKPQSKHPGVAQEDLMSYMEASMSTHSDRKLSLDHMEFLKKLIAPNARSEFIKKGYLAFTKSVNENDEEVFRYEWGPAARQTVDPLALVQTFQQLTGMKPEMLKEQTERANELKAEQVAAVTRGGVLRTRGQ | not soluble |
| MMAESTGVDRGIQSLIAARKSLKLSLEKSKAIGLALGKTGPRFDEIEQRLPLLEAAVRPIRADGEALKDVGGNINRAVGPAAAVLKVFDAVHGLEKSLLSDPKNDLSSYLSVLKRLEEALKFLGENCGLAIQWLEDIVEYLDDHHVADEKYLSNLKKSLRGLSEFHNDRGGGEEKERSQLRLDGGLRNAALDKLENEFRRLLKDNSVPLPMASPSSLGDQACIAPSQLPVTVIHKLQAILGRLRANNRLDKCISIYVEVRSLNVRASLQALDLDYLDISVSEFNDVQSIEGYIAQWGNHLEFAVKHLFEAEFKLCNDVFERLGLNVWMDCFSKIAAQAGMLAFLQFGKTVTDSKKDPIKLLKLLDIFTSLNKLRADFNRLFGGAACIEIQNFTRDLIKRIIDGAAEIFWELLVQVEIQKQTPPPSDGGVPRLVSFVTDYCNKLIGDKYKSTLTQVLLIHKSWRSERFQDNQLMVEVLRIIKAIEQNLDVWMKAYPDQTLAHFFGMNNHWHLYKNLKGTNIGDHLGDSWLKEHDQYKEYYATVFLRDSWGKLPSHLSREGLILFSGGHATARDLVKKRLKAFNDAFDEMYKKQASWVLPEKDLRDRVCQQIVQAIVPVYRSYMQNYGPLVEKDASSSKYVRYTVVALEKILSSLYMPKPMRYGSFKGTPPSEKFKNDVDLRRTTSAVV | soluble |
| MSLHEFQTDSKNKHKVDVHIGIYAPFSSHSAFIGRNILAAMEMGSERLQSSDIHYSFYTLDQLPKNKNAGLVLQKFIDTHHINVLVTGGKETGLIAAPIAKKNNLIHFSLTNNTEVADGRNNFIVWSPAYDQAKVLVNELKRQQVHHLGIITANQPSSTALTHSVIKQLQSDSHIDVAASEYFEPGNKDFSRLTNRIKRKNADMYLVMASPEDIKLIQEQMEADKQHVPITSIVERATPEVVKVFEGQWYVDSHEMQPDFINEFKQNYLNYPVTEAGYAFDLFQLLNKSIVMAIRTQGSPTTSQEVVHQLHDIANGTGVMGTMVLDSKGSLFTKSEVKTVKNGEIHTVEGHHHHHH | soluble |
| GMKEDTIEIAGFHAHVYFDAASRDVAARVREGLGARFEVQLGRWFDKPIGPHPKGMYQVAFLPNQFDKVVPWLMLNREGLDILVHPETGDAVSDHAVYSLWLGAALALNIEFLRQLSSTSSN | soluble |
| MGSDKIHHHHHHMKLETIDYRSPDAAAQFVQSLRDTGFGVLSNHPIQQSLVEAIYKDWYEFFQSGAKEEFRFNPETQDGFFPADVSETAKGHSVKDIKEYYHVYPWGRIPESLRANILAYYDHANQLAAELLSWVEAHSPDEVKALFTEPLPNMIDGSHKTLLRVLHYPPMKGDEEPGAIRAAAHEDINLLTVLPAANEPGLQVKAKDGTWLDVPSDFGNIIINIGDMLQEASGGYFPSTSHRVINPEGMDKTKSRISLPLFLHPRPDVVLSERYTADSYLMERLRELGVI | not soluble |
| MGSDKIHHHHHHMQLPNLQSATLLRRYKRFLADVELNNGEILTLHCANTGAMTGCGEKGDTVWFSTSDSKTRKYPHSWELTQLKNGQTVCINTHRSNQLTLEALQNKIITELAEYDEILPEVKYGVENSRIDFLLKGKNLPDCYVEVKSVTFVKNHLGLFPDAVTTRGQKHLRELIAMKKRGHRAVVFFAGLHDGFNRFTVAKSIDPDYAELLQQAVKEGVEVYSYAVKFDFSHQKPTALYLTNLVNYLE | not soluble |
| GPGSMSSIPVDVLNAVTQCNEKVTAVEKEIEEFTNQVRIDFRSKIEPLFDKRHLELEKIEGFWGSAFVAVESPLMGLLNGTIDPKIVRALTDFRVKTSVRDGSICRCVSVTFRPNMFVKEGTFSRELDPSVNTLSLQPILWKPGTEKARTDSLFRFFSPECKDIEFLERALTEFDELFQNPLLAFE | not soluble |
| MVVYGKQKYIMKRCFYMNKKLKTEAVDHLFQAILTLKSTEECYSFFEDVCTVNELLSFSQRYEVAKMLREKRTYLEIADKTGASTATISRVNRSLNYGNDGYDMVFKRLEDQAAEDNEA | not soluble |
| MADIVVDGIRATYNIRGESAALLCPPHPLMGGSRFDVRLERIAAELTKRNVSVLRFDYQRPFRSGIGEVEDAKKCVAYLKDRHDKIAVIRYSFGSVVASNVAEYCDAAVYISPLPEINSIYFKDAEIPKLFIIATRDQFVSLEESVKLYEQASKPKEVVKVETDHFYFGKFDFIAKITADFIERQSF | soluble |
| TAAVALVKANENAAAILNLKNAIQKTNAAVADVVQATQSLGTAVQAVQDHINSVVSPAITAANY | soluble |
| MGSDKIHHHHHHMITESRQMLDKRNRPLRDLRISVTDRCNFRCTYCMPAELFGPDYPFLKKEELLSFEELERLATLFVTRFGVEKIRLTGGEPLMRKDMPELIKKLARIPGIRDIAMTTNGSLLPVYAKRLKEAGLKRVTISLDSLEDERFKKINGRGVSVSKVLEGIEAAKQAGLGVKINMVVQKGVNEKDILPMARYFKEKGHILRFIEFMDVGNTNQWEKKDVMTKAEIIDLINKHMPVEPIAPNYIGEVASRFRYLDGSGEIGVISSVSDAFCGSCNRARLSARGELFTCLFASSGFDLRAPVRQELSDDELSEMIGTVWKNRIDQYSVDRTLSKASGKKKVEMSYIGG | not soluble |
| MGSHHHHHHMGQSVEVEILLNDAESRKRAEHKTEDGKKEKYFLFYDGETVSGKVSLSLKNPNKRLEHQGIKIEFIGQIELYYDRGNHHEFVSLVKDLARPGEITQSQAFDFEFTHVEKPYESYTGQNVKLRYFLRATISRRLNDVVKEMDIVVHTLSTYPELNSSIKMEVGIEDCLHIEFEYNKSKYHLKDVIVGKIYFLSVEIKIKHMEIDIIKRETTGTGPNVYHENDTIAKYEIMDGAPVRGSSIPIRLFLAGYELTPTMRDINKKFSVRYYLNLVLIDEEERRYFKQQEVVLWRKGDIVRKSMSHQAAIASQRFEGTTSLGEVRTPGQLSDNNSRQ | soluble |
| DSLKAEVNTLFARFDEQPLAAASIAQVHTAALFDGREVIVKVTRPNIRTQILQDFEIISWLGQSLESRLEAARALHLSEIIQDYRQIILNELDLTLEADNTRRMRHYFTGSSMMYVPEVY | not soluble |
| MRLTNYSDYALRILTYLGLKREELSTITEIADCYGISRNHVVKIVHHLGQLGYVDTLRGKNGGIRLAHAPEKINIGEVIRHTETSMDIVECFSNQNSCIIGCSCVLRTAISEALSAFMAVLDDYTLADLIAPRRQLSRKLHVMQISDSLSD | not soluble |
| MSLVKIVDVAKAANVSPAVVSRILSNDSKLVVREETRARVQQAIEALGYTPNLQARGLRLSRSNTLAMIVPELNSPVFPVIIQGAQRAAWERGYSLLVGGMGGEEEDPKVAGRLLRSNRIDGLLVTTGRHEAQMLQELATLNAPFVLVNRYLDDQHPYVELDERGAAAAITRHFIELGHRRIAFLGGLQRRVGERRVAGYADALAEAGLPWVPQLVVDAGYYKPGGEDGLRQLLALDEPPTAVVATNEIVAAGAMAAAHRQGVRIPRDLSIASFSDGIVAELLSPALTAVRFPLERMGYLATAMLVDIVEGRGAPQAGLCLPHESVVVRDSTARPPGRKARAATREGHHHHHH | not soluble |
| YEPEGNRADYWRFARALYAAGFRAGELAYNCFSYHFTPAGSMMETAAHAVGCTVFPGGTGQTEQQVRAIHDLAPSGYTGTPSFLKLILEKADELGIRLDSLRRALVSGEAFPPSLRDWLAARGIEGYQAYGSADLGMIAFETPAREGLVVGED | not soluble |
| MGRAFEYRRAAKEKRWDKMSKVFPKLAKAITLAAKDGGSEPDTNAKLRTAILNAKAQNMPKDNIDAAIKRASSKEGNLSEITYEGKANFGVLIIMECMTDNPTRTIANLKSYFNKTQGASIVPNGSLEFMFNRKSVFECLKNEVENLKLSLEDLEFALIDYGLEELEEVEDKIIIRGDYNSFKLLNEGFESLKLPILKASLQRIATTPIELNDEQMELTEKLLDRIEDDDDVVALYTNIELEHHHHHH | soluble |
| MNEKFRTDLAHTFGIALEEQTDVLSFHDNDGHEWILECASQSEILFFYCYLLNSESIQINSILEMNSNRELLGMFFLSLKDDNILLNIAFPADKIDITEFANLMENGYLLKNEIIRSLSSRPTDFLP | not soluble |
| MGLQFAYLPVEIGQVSDEKCSAFHQLMATLPGPVLAFCNSGNRARALYSRDVGTTTTPAETISAACDWEHEAAAVTEAESEAAGAAAVSAASSRDEAAGKSIPVTPACNWDNAFDIVVVGGGSAGLGVTASLLRRRSSLRIAIIEPNDKHYYQPAWTLVGGGAYAVDQTVRNTADVIPHGAEWIKAEVSGFSPNDNLVHLADGRTIGYQQLIVCPGIRLAWEKIEGIQETLGKNGVTSNYLFDLAPYTWSLTQQLKGGKALFTQPPMPIKCAGAPQKAMYLSCDYWQRQGVLDKIEVEFDSAGAVLFGVADFVPPLMEYVRKYHANLVFNSNLVKVNGPEKIATFEIKNEAGEVTRVDKPFDMLHVTPPQAAPDFLRDSPLADASGYCEVNPKTLQHTRFANIFSLGDACSSPNTKTAAAVRKQIVIVAENLLAAKDGREFHAVYDGYGACPLTVENGKVVLAEFGFGGKLLPTFPLNPAVARKLYWWFKVKLFPWLYWEGLEHHHHHH | not soluble |
